Square brackets hold non-standard residues; d marks the D form. Ends that are not written are not given here. hArg = N=C(N)NCCCC[C@H](N)C(=O)O; Nle = CCCC[C@H](N)C(=O)O; Aib = CC(C)(N)C(=O)O
Experiments:
PTHR-CFPIC3/YFPCT = PTHR-CFPIC3/YFPCT (human); assay: cell-based or functional assay
[1] = target: T1, rat parathyroid hormone receptor (PTHR) (rat, UniProt P25961 27-591); assay: near-equilibrium radioligand binding, ROS17/2.8 membranes
T1 construct: Endogenous in ROS17/2.8 cells (membranes or intact cells); also called rat PTHR; rat PIR
T1 sequence: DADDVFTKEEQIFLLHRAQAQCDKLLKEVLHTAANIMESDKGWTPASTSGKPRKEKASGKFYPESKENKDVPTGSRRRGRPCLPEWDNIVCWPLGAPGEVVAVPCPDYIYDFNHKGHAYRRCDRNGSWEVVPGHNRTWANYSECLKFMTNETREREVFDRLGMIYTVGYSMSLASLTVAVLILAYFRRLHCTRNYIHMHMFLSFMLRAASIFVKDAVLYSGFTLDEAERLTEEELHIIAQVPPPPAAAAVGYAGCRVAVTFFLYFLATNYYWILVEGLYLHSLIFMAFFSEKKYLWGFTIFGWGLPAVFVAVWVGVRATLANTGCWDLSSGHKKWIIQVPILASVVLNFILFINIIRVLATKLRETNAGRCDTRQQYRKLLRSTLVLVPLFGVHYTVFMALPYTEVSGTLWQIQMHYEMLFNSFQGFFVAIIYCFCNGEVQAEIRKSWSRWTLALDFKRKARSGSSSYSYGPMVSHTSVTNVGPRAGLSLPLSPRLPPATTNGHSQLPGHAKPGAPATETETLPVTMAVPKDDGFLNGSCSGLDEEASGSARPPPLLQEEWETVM

[2] = target: T2, human parathyroid hormone receptor (PTHR) (human, UniProt Q03431 27-593); assay: cell-based or functional assay
T2 sequence: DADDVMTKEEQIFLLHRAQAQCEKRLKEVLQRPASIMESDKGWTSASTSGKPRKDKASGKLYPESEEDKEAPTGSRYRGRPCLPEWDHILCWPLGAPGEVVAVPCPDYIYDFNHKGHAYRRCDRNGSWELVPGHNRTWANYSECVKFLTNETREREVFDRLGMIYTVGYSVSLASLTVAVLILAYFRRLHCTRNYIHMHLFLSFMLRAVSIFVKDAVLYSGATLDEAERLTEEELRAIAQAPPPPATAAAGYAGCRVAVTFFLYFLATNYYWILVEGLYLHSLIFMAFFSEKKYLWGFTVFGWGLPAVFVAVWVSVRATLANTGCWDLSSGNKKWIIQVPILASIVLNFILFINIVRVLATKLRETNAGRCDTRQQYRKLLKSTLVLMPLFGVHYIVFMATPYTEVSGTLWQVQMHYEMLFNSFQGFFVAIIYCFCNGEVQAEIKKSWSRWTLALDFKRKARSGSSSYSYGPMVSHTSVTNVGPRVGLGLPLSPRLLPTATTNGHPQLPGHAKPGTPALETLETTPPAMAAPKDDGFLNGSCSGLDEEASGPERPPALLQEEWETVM

[3] = target: T2, human parathyroid hormone receptor …; assay: ratio of R0 IC50 to RG IC50, hPTHR
[4] = target: T1, rat parathyroid hormone receptor (PTHR); assay: competition radioligand binding, rat PIR R0
[5] = target: T1, rat parathyroid hormone receptor (PTHR); assay: competition radioligand binding, rat PIR RG
[6] = target: T2, human parathyroid hormone receptor …; assay: competition radioligand binding, human PIR R0
Procedure: (§1) Binding Studies. Binding studies were performed using cell membranes as described (Dean et al., Mol Endocrinol 20(4):931-43 (2006)). […] Reactions contained a total membrane protein concentration of 20 to 100 μg/mL, and a total radioactivity concentration of approximately 150,000 cpm/ml. Unlabeled peptide ligands and/or GTPγS (Sigma-Aldrich Inc. St. Louis, Mo.) were added to the reactions as indicated. At the end of the reaction, bound and free radioligand were separated by vacuum filtration using a 96-well vacuum filter plate and vacuum filter apparatus (Multi-Screen system with Durapore HV, […] filters; Millipore Corp., Milford, Mass.); the air-dried filters were then detached from the plate and counted for gamma radioactivity using a gamma counter.
(§2) To assess the capacities of various unlabeled peptide ligands to bind to the G protein-uncoupled and G protein-coupled PTHR conformations (R⁰ and RG, respectively), membranes were prepared from transiently transfected COS-7 cells and the following assay conditions.

[7] = target: T2, human parathyroid hormone receptor …; assay: competition radioligand binding, human PIR RG
Procedure: as §1, §2

[8] = target: T2, human parathyroid hormone receptor …; assay: competition radioligand binding, hPTHR R0 conformation
Procedure: as §1, §2

[9] = target: T2, human parathyroid hormone receptor …; assay: competition radioligand binding, hPTHR RG conformation
Procedure: as §1, §2

[10] = target: T2, human parathyroid hormone receptor …; assay: ratio of R0 IC50 to RG IC50, human PTH1 receptor
[11] = target: T2, human parathyroid hormone receptor …; assay: competition radioligand binding, human PTH1 receptor R0
Procedure: as §1, §2

[12] = target: T2, human parathyroid hormone receptor …; assay: competition radioligand binding, human PTH1 receptor RG
Procedure: as §1, §2

B1: [Aib^1,3,Gln^10,Har^11,Ala^12,Trp^14]rPTH(1-14)NH2 (peptide)
peptide: [Aib]V[Aib]EIQLMHQ[hArg]AKW-NH2
modifications: N-terminus assumed
SMILES: CC[C@H](C)[C@H](NC(=O)[C@H](CCC(=O)O)NC(=O)C(C)(C)NC(=O)[C@@H](NC(=O)C(C)(C)N)C(C)C)C(=O)N[C@@H](CCC(N)=O)C(=O)N[C@@H](CC(C)C)C(=O)N[C@@H](CCSC)C(=O)N[C@@H](Cc1c[nH]cn1)C(=O)N[C@@H](CCC(N)=O)C(=O)N[C@@H](CCCCNC(=N)N)C(=O)N[C@@H](C)C(=O)N[C@@H](CCCCN)C(=O)N[C@@H](Cc1c[nH]c2ccccc12)C(N)=O
t1/2 of the FRET response (PTHR-CFPIC3/YFPCT): 0.5 s

AVSEIQLLHDKGKSIQDLRRRFFLHHLIAEIHTAEY-NH2 [[Ile^5,Tyr^36]hPTHrP(1-36)NH2]
t1/2 of the FRET response (PTHR-CFPIC3/YFPCT): 0.5 to 0.7 s

AVSEIQLLHDKGKSIQDLRRRFFLHHLIAEIHTAEY-NH2 (also: 125I label, site not given here, Radioligand) [^125I-[Ile^5,Tyr^36]PTHrP(1-36)NH2]
binding result [1]: binds

B2: A18,22,L25,K26-PTHrP(1-28)NH (peptide)
peptide: AVSEHQLLHDKGKSIQDARRRAFLLKLI-NH2
modifications: not fully specified
notes: also called [Ala^18,22,Leu^25,Lys^26]-PTHrP(1-28); AALK-PTHrP(1-28)
cAMP in HKRK-B7 cells, EC50 [2]: 520 pM | cAMP in HKRK-B7 cells, Max [2]: 56.4 pm/well | R0/RG selectivity [3]: 6970 | IC50 [4]: 34900 pM | IC50 [5]: 160 pM | IC50 [6]: 310000 pM | IC50 [7]: 40 pM | IC50 [8]: 310000 pM | IC50 [9]: 40 pM

AVSEHQLLHDKGKSIQDERRRAFLHHKIAEI-NH2 (Name as printed (K27)) [E18,A22,K27-PTHrP(1-31)NH]
IC50 [4]: 54800 pM | IC50 [5]: 230 pM

AVSEHQLLHDKGKSIQDERRRAFLLKLIAE-NH2 (also called EALK-PTHrP(1-30)) [E18,A22,L25,K26-PTHrP(1-30)NH]
R0/RG selectivity [3]: 11200 | IC50 [4]: 76300 pM | IC50 [5]: 210 pM | IC50 [6]: 945000 pM | IC50 [7]: 80 pM | R0/RG ratio [10]: 11800 | IC50 [8]: 945000 pM | IC50 [9]: 80 pM | IC50 [11]: 945000 pM | IC50 [12]: 80 pM

SVSEIQLMHNLGKHLNSMERVEWLRKKLQDVHNF [hPTH(1-34)]
t1/2 of the reduction in FRET signal (PTHR-CFPIC3/YFPCT): 0.7 s

[Aib]V[Aib]EIQL[Nle]HQ[hArg]AKWY-NH2 (also: 125I label, site not given here, Radioligand; tracer of the RG assay) [^125I-[Aib^1,3,M]PTH(1-15)NH2]
binding result [1]: binds

B3: ^125I-[Nle^8,21,Tyr^34]rPTH(1-34)NH2 (peptide)
peptide: AVSEIQLXHNLGKHLASVERXQWLRKKLQDVHNY
modifications: 125I label (oxidative chloramine-T procedure); Nle at 8 and 21; C-terminal amide
notes: Radioligand; tracer of the R0 assay
binding result [1]: binds

— patent US20110172153A1 (GENERAL HOSPITAL, published 2011)
